Molecular target: cyclophilin D (CypD, PPIF) with a K133I mutation

half-maximal inhibition of Ca2+-induced PT pore opening, calcium retention capacity (CRC) assay on isolated liver mitochondria: 40 nM
Substance: cyclosporine (cyclosporin A) (peptide)

From publication PMC4813465, “Selective Inhibition of the Mitochondrial Permeability Transition Pore Protects against Neurodegeneration in Experimental Multiple Sclerosis” (The Journal of Biological Chemistry, 2015)
